Measured values taken from the supplement of paper PMC9112550, “Optimization of the antimicrobial peptide Bac7 by deep mutational scanning” (BMC Biology, 2022).

Test system: Escherichia coli TOP10
Experiment: shrunken log2 fold change of peptide-encoding DNA abundance (4.5 h post-induction vs induction); higher = less antimicrobial activity (less host growth inhibition)
Settings: time post-induction: 4.5 h; library: site-saturation at positions 5, 18, 19, 20
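Note: peptides expressed intracellularly from a pBAD plasmid library in pooled LB shake-flask culture, induced with 0.3% L-arabinose, DNA abundance read by NGS, three biological replicates, DESeq2 with apeglm shrinkage.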

First: RRIRVRPPRLPRPRPRPMDWPRP
Second: RRIRERPPRLPRPRPRPNDYPRP
The “shrunken log2 fold change” value of the first is higher: -0.138 for the first, -0.41 for the second.

RRIRWRPPRLPRPRPRPWTPPRP and RRIRYRPPRLPRPRPRPTWWPRP are within 0.2 log units of each other in “shrunken log2 fold change” value: 0.0119 for the first, 0.134 for the second.

Compared with RRIRDRPPRLPRPRPRPKCRPRP, RRIRCRPPRLPRPRPRPFAMPRP is lower in “shrunken log2 fold change” value: -0.00674 for the first, -0.495 for the second.

Compared with RRIRQRPPRLPRPRPRPHPGPRP, RRIRHRPPRLPRPRPRPPCNPRP is lower in “shrunken log2 fold change” value: 0.125 for the first, -0.221 for the second.

RRIRSRPPRLPRPRPRPIMNPRP and RRIRHRPPRLPRPRPRPFPWPRP are within 0.2 log units of each other in “shrunken log2 fold change” value: -0.0954 for the first, -0.0989 for the second.

Compared with RRIRPRPPRLPRPRPRPSMMPRP, RRIRSRPPRLPRPRPRPRGKPRP is higher in “shrunken log2 fold change” value: -0.412 for the first, 0.0832 for the second.

Compared with RRIRYRPPRLPRPRPRPSGYPRP, RRIRYRPPRLPRPRPRPTLTPRP is higher in “shrunken log2 fold change” value: -0.714 for the first, -0.0404 for the second.

RRIRHRPPRLPRPRPRPQCEPRP and RRIRNRPPRLPRPRPRPTHMPRP are within 0.2 log units of each other in “shrunken log2 fold change” value: -0.122 for the first, 0.0687 for the second.

Going from RRIRDRPPRLPRPRPRPDEDPRP to RRIRCRPPRLPRPRPRPHGGPRP, the “shrunken log2 fold change” value falls from 1.46 to -0.154.

RRIRERPPRLPRPRPRPCNDPRP and RRIRTRPPRLPRPRPRPIIIPRP are within 0.2 log units of each other in “shrunken log2 fold change” value: -0.19 for the first, -0.219 for the second.

First: RRIRNRPPRLPRPRPRPPSCPRP
Second: RRIRNRPPRLPRPRPRPNPGPRP
The “shrunken log2 fold change” value of the first is lower: -0.134 for the first, 0.118 for the second.

Compared with RRIRDRPPRLPRPRPRPSCNPRP, RRIRMRPPRLPRPRPRPNFWPRP is higher in “shrunken log2 fold change” value: -0.493 for the first, 0.294 for the second.

First: RRIRDRPPRLPRPRPRPEFAPRP
Second: RRIRNRPPRLPRPRPRPQTLPRP
The “shrunken log2 fold change” value of the first is higher: 1.54 for the first, -0.513 for the second.

RRIRSRPPRLPRPRPRPKVIPRP and RRIRQRPPRLPRPRPRPNFRPRP are within 0.2 log units of each other in “shrunken log2 fold change” value: -0.0209 for the first, -0.0457 for the second.

First: RRIRSRPPRLPRPRPRPSTHPRP
Second: RRIRVRPPRLPRPRPRPMTKPRP
The “shrunken log2 fold change” value of the first is lower: -0.353 for the first, 0.0648 for the second.

Going from RRIRGRPPRLPRPRPRPRHWPRP to RRIRMRPPRLPRPRPRPKITPRP, the “shrunken log2 fold change” value falls from 0.439 to 0.19.

Compared with RRIRNRPPRLPRPRPRPPCSPRP, RRIRDRPPRLPRPRPRPDVYPRP is higher in “shrunken log2 fold change” value: -0.327 for the first, -0.00822 for the second.

First: RRIRVRPPRLPRPRPRPTYHPRP
Second: RRIRKRPPRLPRPRPRPSPGPRP
The “shrunken log2 fold change” value of the first is higher: 1.5 for the first, 0.26 for the second.

RRIRARPPRLPRPRPRPCMGPRP and RRIRERPPRLPRPRPRPRANPRP are within 0.2 log units of each other in “shrunken log2 fold change” value: 0.00996 for the first, -0.158 for the second.

RRIRYRPPRLPRPRPRPSANPRP and RRIRTRPPRLPRPRPRPYKSPRP are within 0.2 log units of each other in “shrunken log2 fold change” value: -0.0919 for the first, -0.118 for the second.

RRIRFRPPRLPRPRPRPHDLPRP and RRIRHRPPRLPRPRPRPIGPPRP are within 0.2 log units of each other in “shrunken log2 fold change” value: -0.203 for the first, -0.00697 for the second.

First: RRIRYRPPRLPRPRPRPEEHPRP
Second: RRIRDRPPRLPRPRPRPSHKPRP
The “shrunken log2 fold change” value of the first is higher: 0.0203 for the first, -0.373 for the second.

RRIRVRPPRLPRPRPRPFESPRP and RRIRERPPRLPRPRPRPKYRPRP are within 0.2 log units of each other in “shrunken log2 fold change” value: -0.0298 for the first, -0.00726 for the second.

RRIRVRPPRLPRPRPRPGHHPRP and RRIRVRPPRLPRPRPRPNKWPRP are within 0.2 log units of each other in “shrunken log2 fold change” value: 0.00137 for the first, -0.138 for the second.

Compared with RRIRLRPPRLPRPRPRPPLMPRP, RRIRDRPPRLPRPRPRPHLNPRP is lower in “shrunken log2 fold change” value: 0.313 for the first, -0.152 for the second.

First: RRIRCRPPRLPRPRPRPKIIPRP
Second: RRIRTRPPRLPRPRPRPSTAPRP
The “shrunken log2 fold change” value of the first is lower: -0.932 for the first, 0.181 for the second.

RRIRVRPPRLPRPRPRPIHDPRP and RRIRSRPPRLPRPRPRPRNEPRP are within 0.2 log units of each other in “shrunken log2 fold change” value: -0.0895 for the first, 0.00717 for the second.

Going from RRIRKRPPRLPRPRPRPHTLPRP to RRIRARPPRLPRPRPRPPEGPRP, the “shrunken log2 fold change” value rises from -0.168 to 0.783.

First: RRIRLRPPRLPRPRPRPAKYPRP
Second: RRIRLRPPRLPRPRPRPHENPRP
The “shrunken log2 fold change” value of the first is lower: -0.694 for the first, 0.0369 for the second.

Going from RRIRPRPPRLPRPRPRPIPSPRP to RRIRWRPPRLPRPRPRPFFGPRP, the “shrunken log2 fold change” value rises from 0.00576 to 0.352.

Compared with RRIRIRPPRLPRPRPRPYPAPRP, RRIRARPPRLPRPRPRPMDTPRP is higher in “shrunken log2 fold change” value: -0.331 for the first, 0.143 for the second.

First: RRIRCRPPRLPRPRPRPRFFPRP
Second: RRIRDRPPRLPRPRPRPTRSPRP
The “shrunken log2 fold change” value of the first is lower: 0.191 for the first, 0.877 for the second.

First: RRIRKRPPRLPRPRPRPSEGPRP
Second: RRIRGRPPRLPRPRPRPTSCPRP
The “shrunken log2 fold change” value of the first is lower: 0.0116 for the first, 0.401 for the second.

Going from RRIRIRPPRLPRPRPRPLTWPRP to RRIRCRPPRLPRPRPRPDAWPRP, the “shrunken log2 fold change” value rises from -0.585 to 0.141.

RRIRCRPPRLPRPRPRPMTKPRP and RRIRDRPPRLPRPRPRPKLCPRP are within 0.2 log units of each other in “shrunken log2 fold change” value: 0.0306 for the first, -0.0785 for the second.

RRIRVRPPRLPRPRPRPMPYPRP and RRIRNRPPRLPRPRPRPFPLPRP are within 0.2 log units of each other in “shrunken log2 fold change” value: 0.122 for the first, -0.0286 for the second.

Going from RRIRIRPPRLPRPRPRPMVWPRP to RRIRPRPPRLPRPRPRPRMQPRP, the “shrunken log2 fold change” value rises from 0.0906 to 1.48.

Going from RRIRKRPPRLPRPRPRPMLSPRP to RRIRMRPPRLPRPRPRPTPVPRP, the “shrunken log2 fold change” value rises from -0.227 to 1.14.

RRIRERPPRLPRPRPRPDNCPRP and RRIRERPPRLPRPRPRPKFLPRP are within 0.2 log units of each other in “shrunken log2 fold change” value: -0.0268 for the first, -0.219 for the second.

Compared with RRIRQRPPRLPRPRPRPNWQPRP, RRIRERPPRLPRPRPRPKHRPRP is lower in “shrunken log2 fold change” value: -0.0119 for the first, -0.457 for the second.

Compared with RRIRSRPPRLPRPRPRPISTPRP, RRIRCRPPRLPRPRPRPKMWPRP is higher in “shrunken log2 fold change” value: -0.102 for the first, 1.22 for the second.

First: RRIRFRPPRLPRPRPRPMILPRP
Second: RRIRRRPPRLPRPRPRPVCYPRP
The “shrunken log2 fold change” value of the first is lower: -0.29 for the first, 0.103 for the second.

Going from RRIRDRPPRLPRPRPRPQTAPRP to RRIRRRPPRLPRPRPRPPNDPRP, the “shrunken log2 fold change” value falls from 4.26 to 0.605.

RRIRLRPPRLPRPRPRPGFPPRP and RRIRVRPPRLPRPRPRPITNPRP are within 0.2 log units of each other in “shrunken log2 fold change” value: -0.2 for the first, -0.219 for the second.

Compared with RRIRMRPPRLPRPRPRPFDWPRP, RRIRWRPPRLPRPRPRPQSDPRP is lower in “shrunken log2 fold change” value: 0.597 for the first, -0.239 for the second.

Compared with RRIRNRPPRLPRPRPRPWCAPRP, RRIRVRPPRLPRPRPRPALEPRP is higher in “shrunken log2 fold change” value: -0.0696 for the first, 0.495 for the second.

Going from RRIRIRPPRLPRPRPRPCEPPRP to RRIRFRPPRLPRPRPRPDPHPRP, the “shrunken log2 fold change” value rises from -0.28 to 0.137.

Going from RRIRDRPPRLPRPRPRPNDLPRP to RRIRMRPPRLPRPRPRPNVIPRP, the “shrunken log2 fold change” value falls from 0.124 to -0.117.

RRIRHRPPRLPRPRPRPEIWPRP and RRIRMRPPRLPRPRPRPMWVPRP are within 0.2 log units of each other in “shrunken log2 fold change” value: -0.0396 for the first, 0.0332 for the second.

Compared with RRIRARPPRLPRPRPRPDENPRP, RRIRFRPPRLPRPRPRPYKDPRP is lower in “shrunken log2 fold change” value: 1.2 for the first, -0.213 for the second.

Compared with RRIRKRPPRLPRPRPRPDIWPRP, RRIRERPPRLPRPRPRPRSNPRP is lower in “shrunken log2 fold change” value: 0.211 for the first, -0.0433 for the second.

First: RRIRPRPPRLPRPRPRPDVFPRP
Second: RRIRMRPPRLPRPRPRPLASPRP
The “shrunken log2 fold change” value of the first is lower: -0.203 for the first, 1.34 for the second.

RRIRHRPPRLPRPRPRPPMVPRP and RRIRWRPPRLPRPRPRPNKAPRP are within 0.2 log units of each other in “shrunken log2 fold change” value: 0.0642 for the first, -0.00104 for the second.

Compared with RRIRVRPPRLPRPRPRPINNPRP, RRIRRRPPRLPRPRPRPDMWPRP is higher in “shrunken log2 fold change” value: -0.684 for the first, 0.103 for the second.

For RRIRFRPPRLPRPRPRPSWCPRP, the “shrunken log2 fold change” value was -0.0879.
